Experimental data taken from patent US12077795B2, “Method for biocatalytic protein-oligonucleotide conjugation” (The Research Foundation for The State University of New York, priority 2016, dated 2024).

System: heterologous proteins fused to HST-I
Assay: HST-I catalysed protein conjugation (optical assay to monitor HST-I)
Format: biochemical, Drosophila melanogaster
Procedure: Using an optical assay developed to monitor HST-I, heterologous proteins can be covalently modified at their C-terminus by cholesterol with a t1/2 of 10-20 min at pH 7.1, 25 degrees Celsius.

B1: HST-I: ~26 kDa autocatalytic C-terminal segment of the Hedgehog precursor from Drosophila melanogaster, SEQ ID NO.: 001 (protein)
chain: GCFTPESTALLESGVRKPLGELSIGDRVLSMTANGQAVYSEVILFMDRNLEQMQNFVQLHTDGGAVLTVTPAHLVSVWQPESQKLTFVFADRIEEKNQVLVRDVETGELRPQRVVKVGSVRSKGVVAPLTREGTIVVNSVAASCYAVINSQSLAHWGLAPMRLLSTLEAWLPAKEQLHSSPKVVSSAQQQNGIHWYANALYKVKDYVLPQSWRHD
modifications: Drosophila melanogaster
- time for protein conjugation (in the absence of accessory proteins): < 60 min
- half time of conjugation (physiological buffer, room temperature): ≤ 1 h
